Here are results for 2 molecules from PMC11234873.

A word on the Kd: it is a measure of binding affinity in units of concentration.

The experiment concerns the target full-length human Hsp90α (human), P07900. The experiment is described as follows: BLI. Background: Biolayer interferometry detects binding as a change in optical thickness at a sensor tip.

As for GRGRGRGRGRGRGRGRGRGRGRGRGRGRGRGRGRGRGRGR (modifications not checked) [GR20 dipeptide repeats], the Kd was 8.97 nM.

The molecule PRPRPRPRPRPRPRPRPRPRPRPRPRPRPRPRPRPRPRPR (modifications not checked) [PR20 dipeptide repeats] returned an equilibrium dissociation constant (Kd) of 9.08 nM.
